Laboratory results from publication PMC7582325, “How Human H1 Histone Recognizes DNA” (Molecules, 2020).

B1: ODN1 x ODNcom1 (dsDNA)
DNA 1: CAGACGATCAGCGACGCGTC
DNA 2: GACGCGTCGCTGATCGTCTG
B2: ODN2 x ODNcom2 (dsDNA)
DNA 1: AGTGCCTGACCGTCGTCGAC
DNA 2: GTCGACGACGGTCAGGCACT
B3: d(pA)16 x d(pT)16 (dsDNA)
DNA 1: AAAAAAAAAAAAAAAA
DNA 2: TTTTTTTTTTTTTTTT
modifications: 5' phosphate
B4: d(pA)20 x d(pT)20 (dsDNA)
DNA 1: AAAAAAAAAAAAAAAAAAAA
DNA 2: TTTTTTTTTTTTTTTTTTTT
modifications: 5' phosphate
B5: d(pA)12 x d(pT)12 (dsDNA)
DNA 1: AAAAAAAAAAAA
DNA 2: TTTTTTTTTTTT
modifications: 5' phosphate
B6: d(pA)3 + d(pT)3 mixture (mixed)
?: AAA
DNA: TTT
modifications: 5' phosphate
B7: d(pA)6 + d(pT)6 mixture (mixed)
?: AAAAAA
DNA: TTTTTT
modifications: 5' phosphate

Each molecule was assayed against T1, histone H1° (H1.0) (Homo sapiens, UniProt P07305 1-194) (assay: competition filter binding (I50); 5 mM Mg2+; 20 mM Tris-HCl pH 7.5, 5 mM MgCl2, 1 mM EDTA, 0.3 mg/mL H1, 1 h at 20 C; nitrocellulose filters; competition against 12.0 uM 32P 12-mer; mononucleotides dAMP/dCMP/dTMP not listed). Settings: protein: commercial.
T1 sequence (P07305 whole entry): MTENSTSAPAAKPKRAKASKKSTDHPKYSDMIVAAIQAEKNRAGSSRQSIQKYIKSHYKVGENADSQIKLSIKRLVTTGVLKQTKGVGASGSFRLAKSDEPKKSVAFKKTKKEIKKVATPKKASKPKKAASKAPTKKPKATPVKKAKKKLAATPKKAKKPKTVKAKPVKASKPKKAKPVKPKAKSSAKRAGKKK
AAAA (ssDNA, 5' phosphate) [d(pA)4] gave a Kd of 240 µM. With TTTTT (ssDNA, 5' phosphate) [d(pT)5] the Kd was 75 µM. AAAAAAAAAAAAAAAA (ssDNA, 5' phosphate) [d(pA)16] showed a Kd of 10 µM. Molecule CCCCCCCCCC (ssDNA, 5' phosphate) [d(pC)10] has a Kd of 25 µM. Work on TAAAATCAAA (ssDNA) [10-mer d(TAAAATCAAA)] yielded a Kd of 30 µM. GTCGACGACGGTCAGGCACT (ssDNA) [ODNcom2] was tested, and the Kd was 4.1 µM. CAGACGATCAGCGACGCGTC (ssDNA) [ODN1] gave a Kd of 4 µM. Molecule TAGAAGATCAAA (ssDNA) [12-mer hetero-ON, unlabeled competitor] has a Kd of 12 µM. In the case of AAAAAA (ssDNA, 5' phosphate) [d(pA)6], the Kd is reported as 57 µM. TTTT (ssDNA, 5' phosphate) [d(pT)4] was tested, and the Kd was 96 µM. Work on CCCCC (ssDNA, 5' phosphate) [d(pC)5] yielded a Kd of 300 µM. Work on GACGCGTCGCTGATCGTCTG (ssDNA) [ODNcom1] yielded a Kd of 3.7 µM. In the case of TTTTTTTT (ssDNA, 5' phosphate) [d(pT)8], the Kd is reported as 76 µM. Molecule TTTTTTTTTT (ssDNA, 5' phosphate) [d(pT)10] has a Kd of 25 µM. Work on TATAATCTTA (ssDNA) [10-mer d(TATAATCTTA)] yielded a Kd of 28 µM. AAAAAAAAAAAAAAAAAAAA (ssDNA, 5' phosphate) [d(pA)20] was tested, and the Kd was 10 µM. For AGTGCCTGACCGTCGTCGAC (ssDNA) [ODN2], the Kd was 3.8 µM. AAAAAAAA (ssDNA, 5' phosphate) [d(pA)8] gave a Kd of 48 µM. With TTTTTT (ssDNA, 5' phosphate) [d(pT)6] the Kd was 48 µM. CCCCCCCC (ssDNA, 5' phosphate) [d(pC)8] was tested, and the Kd was 34 µM. Work on AAAAAAAAAA (ssDNA, 5' phosphate) [d(pA)10] yielded a Kd of 28 µM. With AAAAAAAAAAAA (ssDNA, 5' phosphate) [d(pA)12] the Kd was 14 µM. TTTTTTTTTTTTTTTT (ssDNA, 5' phosphate) [d(pT)16] gave a Kd of 5 µM. AAAAA (ssDNA, 5' phosphate) [d(pA)5] gave a Kd of 70 µM. Molecule TCCCATCAAA (ssDNA) [10-mer d(TCCCATCAAA)] has a Kd of 30 µM. In the case of TTTTTTTTTTTTTTTTTTTT (ssDNA, 5' phosphate) [d(pT)20], the Kd is reported as 4.6 µM. In the case of CCCCCCCCCCCC (ssDNA, 5' phosphate) [d(pC)12], the Kd is reported as 20 µM. TTTTTTTTTTTT (ssDNA, 5' phosphate) [d(pT)12] gave a Kd of 10 µM. In the case of CCCCCC (ssDNA, 5' phosphate) [d(pC)6], the Kd is reported as 61 µM. With ATG (ssDNA, 5' phosphate) [d(pATG)] the Kd was 1500 µM.

Same assay, conditions: protein: commercial; blunt
Molecule B1 has a Kd of 2.7 µM. With B2 the Kd was 2.9 µM. In the case of B3, the Kd is reported as 3.8 µM. B4 was tested, and the Kd was 3 µM. For B5, the Kd was 7.5 µM.

Same assay, conditions: protein: commercial; mixture of complementary strands, not a preformed duplex
For B6, the Kd was 1000 µM. Molecule B7 has a Kd of 55 µM.

Each molecule was assayed against T1, histone H1° (H1.0) (assay: competition filter binding (I50)). Settings: 5' phosphate; 20 mM Tris-HCl pH 7.5, 5 mM MgCl2, 1 mM EDTA, 0.3 mg/mL H1, 1 h at 20 C; nitrocellulose filters; competition against 12.0 uM 32P 12-mer; mononucleotides ….
d(pC)2 gave a Kd of 4400 µM.

Each molecule was assayed against T1, histone H1° (H1.0) (assay: filter binding; 5 mM Mg2+; 20 mM Tris-HCl pH 7.5, 5 mM MgCl2, 1 mM EDTA, 0.3 mg/mL H1, 1 h at 20 C; nitrocellulose filters; competition against 12.0 uM 32P 12-mer; mononucleotides dAMP/dCMP/dTMP not listed). Settings: protein: commercial; label: 5'-32P.
Molecule TAGAAGATCAAA (ssDNA, 5' phosphate (32P)) [12-mer hetero-ON 32P probe] has a Kd of 12 µM.

The molecules below were run against T2, H1° histone (human recombinant; H1 histone) (Homo sapiens, UniProt P07305) (assay: competition with […]'-[…]TAGAAGATCAAA, nitrocellulose filter binding). Settings: 20 mM Tris-HCl pH 7.5, 5 mM MgCl2, 1 mM EDTA, 20 °C, 0.3 mg/mL H1; Kd taken as I50 with 12 µM labelled 12-mer (its Kd); error not above 10–12%.
T2 construct: gene H1-0; commercial recombinant human H1° (BioLabs M2501S), free histone
T2 sequence (P07305 2-194): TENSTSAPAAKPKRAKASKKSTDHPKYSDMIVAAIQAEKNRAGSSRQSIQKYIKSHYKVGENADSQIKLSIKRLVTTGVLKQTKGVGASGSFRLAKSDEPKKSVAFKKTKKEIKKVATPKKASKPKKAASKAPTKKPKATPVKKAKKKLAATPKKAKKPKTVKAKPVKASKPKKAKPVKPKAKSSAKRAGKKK
With `Cc1cn([C@H]2C[C@H](O)[C@@H](COP(=O)(O)O)O2)c(=O)[nH]c1=O` [dTMP] the Kd was 13000 µM. `Nc1ccn([C@H]2C[C@H](O)[C@@H](COP(=O)(O)O)O2)c(=O)n1` [dCMP] gave a Kd of 10000 µM. With `Nc1ncnc2c1ncn2[C@H]1C[C@H](O)[C@@H](COP(=O)(O)O)O1` [dAMP] the Kd was 16000 µM.
